Measured values as given in the supplement of paper PMC9942255.
“And” between values parts separate entries of the source, which are not always exact repeats. Identical values can stand only once.

Tested on: Bacillus subtilis DB104 (SP-AmyQ fusion secretion)
Experiment: AmyQ secretion efficiency, weighted average sort bin (1 = best secretion, 10 = worst) (bin number (weighted average, 1-10)); higher = lower secretion efficiency
Summary of the method: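 The secretion score was taken as the read-frequency-weighted mean bin number, normalised to beads per bin, with low-abundance sequences excluded. Bins came from large-particle flow cytometry sorting of occupied alginate beads (~65 nL, about 0.3 cells each, with fluorescein-starch) into 10 equally populated groups by green/red fluorescence ratio after about 13 h at room temperature and nile red staining. The cells were a B. subtilis DB104 library with mature AmyQ fused to designed signal peptides, integrated at amyE, and each bin's amplicons were Illumina-sequenced.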

| Sequence | AmyQ secretion efficiency |
| --- | --- |
| MKRLFMKASLVLFAVVFVFAVKGAIAKAETH | 2.52 |
| MKQIMIFLTSFMMTGQTALAKDV | 3.81 |
| MNFKKTVVSALSISALALEEEDEDASAHEI | 6.1 |
| MFNRLFRVCFLAALIMAFTLPNSCYAQKP | 2.79 |
| MKTLRTLCVLMILSGVIFFGLKIDVKDI | 6.52 |
| MTKKGWQLPLVCVLLISGWLAPAASASAQTT | 1.79 |
| MKKLLAAGIIGLLTVSIASPSFWAEK | 7.9 |
| MKKVLMAFIICLSLILSVLAAPPSGGKAESV | 5 |
| MKSKWMSGLLLVAVGFSFITQVMVHAGET | 6.13 |
| MKKQWIGMLAAAVLLLMVPKVSLADAA | 2.86 |
| MKKRKRRNFKRFIAAFLVLALMISLVPDVLAKST | 3.69 |
| MKKAFLVFLSVVLVTTVFLVKQQESVAQNKQL | 2.89 |
| MKKVLMAFIICLSLILSGLAAPPSGAKAESV | 2.28 |
| MKLSVKIRRRKTVAAAAMTAKMYATAKGN | 7.97 |
| MVKKWLIQFAVMLSVLSTFTYSASIVGV | 8.01 |
| MMGKGLLAGALTATVLFGTCAVDVPGIISPKTAEAASQ | 1.48 |
| MRKKRVITCVMAASPAGYASAKED | 7.41 |
| MNKFLKSNFRFLLAAALGISLLASSNFAKASND | 1.03 |
| MKKELLASLVLCLSLSPLVSTNEVFAATT | 2.73 |
| MGLGKKLSVAVAASFMSLSISLPGCQAAEG | 1.48 |
| MPIKKKVMMCLAVTLVFGSMSFPTLTNSGEFKE | 5.74 |
| MLKKKWMVGLLAGCLAAGGFSYNNFATEN | 6.75 |
| MKKLLAAGIIGLLTVSIASPTFAAEK | 2.52 |
| MIAYFGKCLLLVTIMFLGVLFGMQQANHG | 6.54 and 6.99 and 8.58 |
| MSMIGLLFMLCLAALFTIGFPAQQADAAEA | 2 |
| MKVCQKSIVRFLVSLIIGTFVISVPFMANFQSD | 5.64 |

| Sequence | AmyQ secretion efficiency |
| --- | --- |
| MKKTRQTLVILGALGTSYISADSS | 5.19 |
| MKNMSCKLVVSVTLFFSFLTIGPLFHAQNS | 5.19 |
| MKLSVKIAGVLTVAAAAMSTAKMYATAKGN | 7.14 |
| MFNRLFRVCFLAALIMAFTLPNSVYIQKP | 7.01 |
| MKKAFLVFLSVVLVTTVFLVKQQESVDQAKQL | 5.67 |
| MKLAKRVSALTPSTTLAITEKAKEL | 7.31 |
| MKVKKSALLLLLFAFEPSASGKKL | 7.2 |
| MLKKKWMVGLLAGCLAAGGFSYNCFATEN | 3.91 |
| MRFTKVVGFLSVLGLAAKKRKRRAQAEKA | 7.6 |
| MKKVMLATALFLGLTRRKANAADL | 7.36 |
| MLCVMMLLFSAIASFPVSIQAKDQ | 6.18 |
| MKLAKRVSALTPSTTLAITGKAKEL | 7.09 |
| MKKFIVFICFFVLFSVHPIAAAAADS | 4.38 |
| MRKKLKWLSFRRRRIILLFLFKYQFSNNDS | 7.16 |
| MKSKGSIMACLILFSFTITTFIAFITISAFSN | 5.09 |
| MAIIIAIIAAVIVIAALITFNVPNASPG | 6.07 |
| MIAYFGKCLLLVTIMFLGVLFVMQQANHG | 7.39 |
| MFKRGIQAFAGGIILATAVLAAVFYLTDEDQAAAV | 5.98 |
| MKLWMRKTLVVLFTIVTFGLVSPPAARMADKP | 2.4 |
| MKRIRIPMTLALGAALTIAPLSFRSAEEN | 7.87 |
| MKKRLIGFLVLVPALIMSGITLQEANKK | 7.31 |
| MKKKQVMLKRTAAAGLGLTALHSAPAAKAAPL | 6.55 |
| MNLRKIILLSSALSLGMLVSAAPVLATSS | 2.82 |
| MLCVMMLLFSAIASFPVSAQEKDQ | 5.69 |
| MPYLKRVLLLLVTGLFMSLFIFLIVISAVTATASAQTG | 1.25 |
| MSNMSCMLVVSVTLFFSFLTIGPLAHAQNS | 1.7 |

| Sequence | AmyQ secretion efficiency |
| --- | --- |
| MTMLRKIIGWILLLCIIPLFAFTVIASNKEV | 5.99 |
| MKKAFILSAAAAVGLFTFDDDQQASAKEL | 2.77 |
| MKRFLIGAGVAAVILSGWFIADHQTHSQEM | 7.62 and 6.01 and 6.59 |
| MKWMCSICCAAVLLAGGAQAEAV | 3.54 |
| MKIRKILLSSALSFGMLISAVPCLAAGT | 2 |
| MKIRKILLSSALSFGMLISAVPALLAGT | 4.82 |
| MNKLKRLSMLTVMIASVFIFSSHALVAQY | 5.99 |
| MKLAKRVSALTPSTTLAIATAKAKEL | 7.06 |
| MQLGKKLSVAVAASFMSLSISLPGVQAAEG | 2.25 |
| MLCVMMLLFSAIASFPVSAQHKDQ | 5.96 |
| MKVPKTMLLSTAAGLLLSLTATSVSAHRK | 4.68 |
| MPIKKKCLAVTLVFGSMSFPTLTNSGGFKE | 5.38 |
| MPYLKRVLLLLVTGLFMSLFGDTATASAQTG | 1.23 |
| MRPVFPLILSAVLFLSCFFGARQTEASASSD | 1.96 |
| MKRLKVSLRVWMVFLMNWVTPDRKTAAAAVY | 6.85 |
| MRGKSAVLLSLIMLIAGFLIHFSFQM | 6.42 |
| MKKKQVSHAIIISVMLSFVIAVFHTIHASERKR | 7.08 |
| MPIKKKVMMCLAVTLVFGSMIFITLTNSGGFKE | 6.04 |
| MNFKKTVVSALSISALALKKRGVASAHEI | 6.98 |
| MGTFSTASILLLGILCSAAVFLIGAPSRALGAEV | 2.99 |
| MNKPTKLFSTLALAAGMTEDEAGGAGTIHAQQP | 2.79 |
| MRKTRRKKKRGLMMFGTITAASASPD | 5.82 |
| MRMLWRGQKSCGTYLTLAPCAQAAEP | 7.51 |
| MMIKQCVICLSLLVFGTEEDAHAEET | 3.44 |
| MKLAKRVSALTPSTTLAITTKAKEL | 6.55 |
| MKWMCSICCAAVLLAGGTAQAEAV | 2.47 |

| Sequence | AmyQ secretion efficiency |
| --- | --- |
| MSTGILAAGLTASAIVGTTLVVTPAEAATI | 4.73 |
| MKSKGSIMACLILFSFTITTFINTETKSAFSN | 6.7 |
| MLCVMMLLFSAIASFPVSAQTKDQ | 6.25 |
| MRSKKLWISLLFALTLIFTMAFSNMSAQAAGQ | 2.13 |
| MKKSQYFIVFICFFVLFSRHKKAAAAADS | 6.2 |
| MTKKAWFLPLVCVLLISGWLAPAASASFQTT | 2.38 |
| MKKKIVAGLAVSAVVQDDPSAAPAEAKTI | 7.07 |
| MKKRITYSLLALLAVVAFAFTDSSKSKAAEA | 3.09 |
| MKRIRIPMTYRYQSALTIAPLSFASAEEN | 7.35 |
| MRKKTKNRLISSVLSTVVISSLLFPGAAFAGASSK | 1.5 |
| MKKTIMSFFFVAVAALSTTAFGAHASAKEI | 2.53 |
| MSFKRVITCVMAASLTLGSLLPAGYASAKED | 2.84 |
| MRKKTKNRLISSVLSTVVISSLLFPGAAGASSD | 2.47 |
| MRKRKKRLSVAVAASFMSLSISLPGVQAAEG | 2.16 |
| MTTKFKKKRRFLLCFMPAAKIEHTQASLL | 7.76 |
| MRIFKKAVFVIMISFLIATVNVNTCHAAID | 3.94 |
| MKKAFILSAAAAVGLFTFGGVQQASGKEL | 3.67 |
| MTKRGIQAFAGGIILATYLTDEDQAAAV | 7.21 |
| MGLGKKLSVAVAASFMSLSISLPGTQAAEG | 1.77 |
| MKSKGSIMACLILFSFTITTFINTETISFFSN | 6.76 |
| MKLKSKLLLSCLALSTVFVATTIANHPTH | 4.89 |
| MHLIRAAGAVCLAVVLIAGCRFIIVAIGAEGENT | 6.53 |
| MKLSVKIAGVLTVAAAAMTAKMYATYKGN | 7.14 |
| MKKRLIGFLVLVPALIMSGITLIELNKK | 6.99 |
| MPYLKRVLLLLVTGLFMSLFAVTATDSAQTG | 6.72 |
| MKVLLSALLLLLFAFEPSASPKKL | 2.66 |

| Sequence | AmyQ secretion efficiency |
| --- | --- |
| MTKKAWFLPLVCVLLISGWLAPAASASEQTT | 1.79 |
| MNLWMRKTLVVLFTIVTFGLVSPPAALMADKP | 2.15 |
| MKKRLIGFLVLVPALIMSGITLIECNKK | 6.67 |
| MKRRLSTLLIGIMLLTFAPSAFAKQD | 1.82 |
| MKKIRRRKRKCLAALFTIGFPAQQADAAEA | 7.19 |
| MRKTKKRKLTGLMMFGTITAASASPD | 4.65 |
| MKKQTTIINNSTIITATTAVVLGSTLFAGAASAQSI | 3.18 |
| MTMLRKIIGWILLLCIIPLFAFTVIQSGKEV | 6.03 |
| MLKKIALTLCPAIVGSLLFFTKRKKRKASAHVS | 7.45 |
| MFKKHTISLLIIFLLAEAVLAEPIEAHTV | 2.51 |
| MKKRKKKSLLALLAVVAFAFTDSSKAKAAEA | 2.95 |
| MKKAAAVLLSLGLVFGFSYGAGHVVEAKTK | 2.99 |
| MKYCQKSISRFLVSLIIGTFVISVPFMANAQSD | 3.17 |
| MPYLKRVLLLLVTGLFMSLFAVTATASARRR | 7.69 |
| MRKKRVITCVMAASLTLGSLLPAGYATAKKR | 2.88 |
| MILANSVSALTPSTTLAITAKAKEL | 8.58 |
| MKRLKRRKLIGIMLLTFAPSAFAKQD | 4.68 |
| MPYLKRLSIVLLLLVTGLFMSLFAVTATASAQTG | 1.6 |
| MKLAKRVSALTPSTTLAITAKRKEL | 8.52 |
| MLKKIALTLCPAIVGSLLFFTAPASQHVS | 5.33 |
| MKKLLAAGIIGLLTVSIASPLFAAEK | 3.02 |
| MKRYKQRLRVWMVFLMNWVTPDRKTAAAAVY | 6.82 |
| MNIKKFAKQATVLTFTTALLAGGATQAFAKET | 3.3 |
| MLSSKWMVGLLAGCLAAGGFSYNAFATEN | 3.83 |
